Three molecules from publication PMC4201289 (Genes & Development, 2014) can be followed below.

Assay [1] addresses Mcm2–7 hexamer (minichromosome maintenance proteins 2–7) (S. cerevisiae) (UniProt P29469). Nature of the assay: cryo-EM structure.
Assay [2] has as its target T1, Mcm4 (subunit in the Mcm2–7 double hexamer) (S. cerevisiae, UniProt P30665 1-933).
T1 sequence: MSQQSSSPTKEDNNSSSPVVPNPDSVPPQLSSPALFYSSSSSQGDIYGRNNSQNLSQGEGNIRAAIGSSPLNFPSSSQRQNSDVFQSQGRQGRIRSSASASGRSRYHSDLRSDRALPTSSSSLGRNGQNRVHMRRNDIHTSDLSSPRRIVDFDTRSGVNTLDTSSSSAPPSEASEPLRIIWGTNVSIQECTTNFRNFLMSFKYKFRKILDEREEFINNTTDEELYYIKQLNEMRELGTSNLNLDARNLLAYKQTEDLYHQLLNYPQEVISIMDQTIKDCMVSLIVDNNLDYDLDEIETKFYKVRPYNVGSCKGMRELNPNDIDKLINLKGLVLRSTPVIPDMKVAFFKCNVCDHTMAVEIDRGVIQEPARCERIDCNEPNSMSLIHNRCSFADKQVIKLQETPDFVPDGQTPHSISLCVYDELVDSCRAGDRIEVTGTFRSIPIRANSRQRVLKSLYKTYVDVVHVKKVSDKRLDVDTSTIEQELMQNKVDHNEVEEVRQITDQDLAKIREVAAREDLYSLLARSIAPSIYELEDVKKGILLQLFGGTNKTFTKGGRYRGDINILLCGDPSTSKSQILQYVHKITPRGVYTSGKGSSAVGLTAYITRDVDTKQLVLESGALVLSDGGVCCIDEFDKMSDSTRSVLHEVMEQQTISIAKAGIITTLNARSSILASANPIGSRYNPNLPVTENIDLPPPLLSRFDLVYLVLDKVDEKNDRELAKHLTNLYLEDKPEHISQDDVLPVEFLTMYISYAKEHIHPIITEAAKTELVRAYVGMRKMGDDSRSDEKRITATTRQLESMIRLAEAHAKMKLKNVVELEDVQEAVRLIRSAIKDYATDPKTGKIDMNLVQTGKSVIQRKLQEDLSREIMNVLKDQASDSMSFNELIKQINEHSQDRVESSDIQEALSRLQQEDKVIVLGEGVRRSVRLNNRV
Nature of the assay: negative stain EM, 3D reconstruction.

One may read the stoichiometry N as the number of molecules, sites or subunits per partner or assembly.

Regarding “Mcm2–7 hexamer (minichromosome maintenance proteins 2–7) (from UniProt P29469;P24279;P30665;P29496;P53091;P38132) (complex)”, the stoichiometry N in assay [1] was 2.

B1: Mcm5 (subunit in the Mcm2–7 double hexamer) (natural protein)
chain: MSFDRPEIYSAPVLQGESPNDDDNTEIIKSFKNFILEFRLDSQFIYRDQLRNNILVKNYSLTVNMEHLIGYNEDIYKKLSDEPSDIIPLFETAITQVAKRISILSRAQSANNNDKDPENTSMDTDSLLLNSLPTFQLILNSNANQIPLRDLDSEHVSKIVRLSGIIISTSVLSSRATYLSIMCRNCRHTTSITINNFNSITGNTVSLPRSCLSTIESESSMANESNIGDESTKKNCGPDPYIIIHESSKFIDQQFLKLQEIPELVPVGEMPRNLTMTCDRYLTNKVIPGTRVTIVGIYSIYNSKNGAGSGRSGGGNGGSGVAIRTPYIKILGIQSDVETSSIWNSVTMFTEEEEEEFLQLSRNPKLYEILTNSIAPSIFGNEDIKKAIVCLLMGGSKKILPDGMRLRGDINVLLLGDPGTAKSQLLKFVEKVSPIAVYTSGKGSSAAGLTASVQRDPMTREFYLEGGAMVLADGGVVCIDEFDKMRDEDRVAIHEAMEQQTISIAKAGITTVLNSRTSVLAAANPIYGRYDDLKSPGDNIDFQTTILSRFDMIFIVKDDHNEERDISIANHVINIHTGNANAMQNQQEENGSEISIEKMKRYITYCRLKCAPRLSPQAAEKLSSNFVTIRKQLLINELESTERSSIPITIRQLEAIIRITESLAKLELSPIAQERHVDEAIRLFQASTMDAASQDPIGGLNQASGTSLSEIRRFEQELKRRLPIGWSTSYQTLRREFVDTHRFSQLALDKALYALEKHETIQLRHQGQNIYRSGV
In the case of B1, in assay [2], the binding result is “binds”.

B2: Mcm2 (subunit in the Mcm2–7 double hexamer) (natural protein)
chain: MSDNRRRRREEDDSDSENELPPSSPQQHFRGGMNPVSSPIGSPDMINPEGDDNEVDDVPDIDEVEEQMNEVDLMDDNMYEDYAADHNRDRYDPDQVDDREQQELSLSERRRIDAQLNERDRLLRNVAYIDDEDEEQEGAAQLDEMGLPVQRRRRRRQYEDLENSDDDLLSDMDIDPLREELTLESLSNVKANSYSEWITQPNVSRTIARELKSFLLEYTDETGRSVYGARIRTLGEMNSESLEVNYRHLAESKAILALFLAKCPEEMLKIFDLVAMEATELHYPDYARIHSEIHVRISDFPTIYSLRELRESNLSSLVRVTGVVTRRTGVFPQLKYVKFNCLKCGSILGPFFQDSNEEIRISFCTNCKSKGPFRVNGEKTVYRNYQRVTLQEAPGTVPPGRLPRHREVILLADLVDVSKPGEEVEVTGIYKNNYDGNLNAKNGFPVFATIIEANSIKRREGNTANEGEEGLDVFSWTEEEEREFRKISRDRGIIDKIISSMAPSIYGHRDIKTAVACSLFGGVPKNVNGKHSIRGDINVLLLGDPGTAKSQILKYVEKTAHRAVFATGQGASAVGLTASVRKDPITKEWTLEGGALVLADKGVCLIDEFDKMNDQDRTSIHEAMEQQSISISKAGIVTTLQARCSIIAAANPNGGRYNSTLPLAQNVSLTEPILSRFDILCVVRDLVDEEADERLATFVVDSHVRSHPENDEDREGEELKNNGESAIEQGEDEINEQLNARQRRLQRQRKKEEEISPIPQELLMKYIHYARTKIYPKLHQMDMDKVSRVYADLRRESISTGSFPITVRHLESILRIAESFAKMRLSEFVSSYDLDRAIKVVVDSFVDAQKVSVRRQLRRSFAIYTLGH
B2: in assay [2], the binding result is recorded as “binds”.
